Measurements reported in patent US20260250378A1.

Tests used:
[1] = molecular target: T1, purified fragment of human CNX containing Amino acids 1-481 fused to human FC region (FC-CNX) (human) (UniProt P27824); experiment: BLI (Octet), scFv on penta-His sensor, FC-CNX 90, 30, 10, 3.3 nM; printed without the letter E
T1 sequence (looked up): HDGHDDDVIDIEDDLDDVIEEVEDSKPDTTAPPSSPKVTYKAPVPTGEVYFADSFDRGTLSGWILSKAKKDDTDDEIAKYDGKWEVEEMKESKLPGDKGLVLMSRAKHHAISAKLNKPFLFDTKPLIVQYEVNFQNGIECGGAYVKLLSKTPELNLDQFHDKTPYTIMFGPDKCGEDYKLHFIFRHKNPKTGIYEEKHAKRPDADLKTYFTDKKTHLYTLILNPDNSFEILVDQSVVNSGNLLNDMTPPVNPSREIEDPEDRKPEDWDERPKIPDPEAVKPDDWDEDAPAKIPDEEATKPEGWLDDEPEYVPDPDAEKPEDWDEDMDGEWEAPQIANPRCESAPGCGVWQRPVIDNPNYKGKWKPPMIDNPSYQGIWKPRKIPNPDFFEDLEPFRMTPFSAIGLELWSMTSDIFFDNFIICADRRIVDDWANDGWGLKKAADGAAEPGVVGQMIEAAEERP

[2] = molecular target: T1, purified fragment of human CNX containing Amino acids 1-481 fused to human FC region (FC-CNX) (human); experiment: BLI (Octet), scFv on penta-His sensor, FC-CNX 90, 30, 10, 3.3 nM
[3] = molecular target: T1, purified fragment of human CNX containing Amino acids 1-481 fused to human FC region (FC-CNX) (human); experiment: BLI (Octet), scFv on penta-His sensor, FC-CNX 90, 30, 10, 3.3 nM; same value in the inset box of the Fitting View (Full X^2 0.108, Full R^2 0.9955)

kon [1]: 1.14e+06 M⁻¹ s⁻¹
koff [2]: 0.000149 s⁻¹
Kd [3]: 0.131 nM
B1: scFv clone 8 (C008) (scFv, part only; not given: His and myc tags, phage protein, not shown: another chain or arm of the molecule; large carriers; small tags and cut ends)
scFv: QVQLVQSGGGVVQPGRSLRLSCAASGFTVSSNYMSWVRQAPGKGLEWVSVIYSGGSTYYADSVKGRFTISRDNSKNTLYLQMNSLRAEDTAVYYCARGSRAVAGAFDYWGQGTLVTVSSGGGGSGGGGSGGGGSYSELTQDPAVSVALGQTVRITCQGDSLRTYYANWYQQKPGQAPVLVMYAKNHRPSGIPDRFSGSSSGNTASLTITGAQAEDEADYYCGSRDSSGNHPVFGGGTKVTVL
